Measurements taken from the supplement of paper PMC11811203.

B1: THAP1; numbered along this chain (parent)
chain: MVQSCSAYGCKNRYDKDKPVSFHKFPLTRPSLCKEWEAAVRRKNFKPTKYSSICSEHFTPDCFKRECNNKLLKENAVPTIFLCTEPHDKKEDLLEPQEQLPPPPLPPPVSQVDAAIGLLMPPLQTPVNLSVFCDHNYTVEDTMHQRKRIHQLEQQVEKLRKKLKTAQQRCRRQERQLEKLKEVVHFQKEKDDVSERGYVILPNDYFEIVEVPA

Variants of: B1
Assay: THAP1 transcriptional activity (GFP+/GFP- enrichment relative to wild-type constructs) (ratio to WT); higher = more THAP1 activity (PSMB5 reporter activation)
Conditions: with PSMB5 promoter-GFP reporter
In short: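 A lentiviral site-saturation library covering residues 2–213 of human THAP1, with each position changed to all 20 amino acids, was transduced in duplicate at MOI ~0.3 into THAP1-knockout HEK-293T cells with mClover3 knocked in at endogenous PSMB5. Five days later, BFP+ cells were sorted into GFP-dim and GFP-bright bins and variants were counted by Illumina sequencing of genomic DNA amplicons. Activity is the bright/dim read fold change averaged over replicates and divided by the mean of wild-type synonymous constructs.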

THAP1 transcriptional activity of substitutions, site by site:
L82: H 1.27, K 0.792, M 0.668, N 1.88, P 2.38, Q 1.59, R 0.825, S 0.94, T 2.19, V 1.71, W 2.23, Y 1.46
C83: D 2.06, E 0.913, F 1.21, G 1.18, H 2.25, I 1.18, K 1, M 0.953, N 1.13, P 0.676, Q 3.29, R 1.54, S 1.05, T 1.67, V 1.41, Y 2.11
T84: C 0.907, D 0.604, E 4.49, F 1.21, G 0.785, H 0.92, I 0.739, K 2.57, L 1.48, M 1.23, P 1.44, Q 1.65, R 1.39, S 0.852, W 1.97, Y 1.82
E85: A 0.937, C 0.285, D 0.708, F 0.389, G 1.14, H 0.704, I 1.04, L 0.328, M 0.346, P 1.01, Q 1.16, R 0.558, S 1.35, T 0.594, V 0.702, W 0.155, Y 0.792
P86: A 0.874, C 0.542, E 2.07, F 0.921, G 0.464, H 0.865, I 2.01, K 0.623, L 0.608, M 2.06, N 0.592, R 0.766, S 0.97, T 0.609, V 1.04, W 0.533, Y 0.685
H87: A 1.39, C 1.84, E 2.22, F 2.09, K 1.13, M 2.74, N 2.68, P 3.55, R 1.11, S 2.01, T 2.56, V 1.56, W 1.17, Y 1.16
D88: A 0.554, C 0.815, E 1.04, F 0.918, H 0.413, I 0.371, K 1.56, L 1.3, M 0.615, N 0.665, Q 1.12, S 1.92, T 0.582, V 0.781, W 0.937, Y 0.858
K89: A 0.888, C 1.4, D 1.33, E 1.6, F 1.17, G 1.41, H 1.44, I 1.1, L 1.64, M 0.476, N 1.86, P 0.989, Q 1.32, R 0.657, S 2.9, T 1.3, V 1.41, W 0.592
K90: A 1.95, C 1.03, D 0.818, E 2.91, F 0.963, G 1.6, H 0.995, I 1.52, L 0.82, M 1.03, N 1.49, P 1.06, Q 2.35, R 0.598, S 1.77, T 1.43, W 0.775, Y 0.498
E91: A 0.844, D 1.04, F 0.403, G 1.01, I 0.999, K 2.46, L 0.546, M 0.596, N 0.857, P 0.793, Q 1.02, S 1.71, T 0.885, V 0.513, W 0.619, Y 0.85
D92: A 1.55, C 0.866, E 1.44, F 0.641, G 0.763, I 2.59, K 1.22
